# Measured values taken from patent publication US7598033B2, “Method and devices for running reactions on a target plate for MALDI mass spectrometry” (University of Pennsylvania, priority 2003, dated 2009).
# B1: plasmin: pure plasmin, serine protease deposited on the array (protein, UniProt P00747 20-580; P00747 581-810, looked up)
# Plasmin heavy chain A: EPLDDYVNTQGASLFSVTKKQLGAGSIEECAAKCEEDEEFTCRAFQYHSKEQQCVIMAENRKSSIIIRMRDVVLFEKKVYLSECKTGNGKNYRGTMSKTKNGITCQKWSSTSPHRPRFSPATHPSEGLEENYCRNPDNDPQGPWCYTTDPEKRYDYCDILECEEECMHCSGENYDGKISKTMSGLECQAWDSQSPHAHGYIPSKFPNKNLKKNYCRNPDRELRPWCFTTDPNKRWELCDIPRCTTPPPSSGPTYQCLKGTGENYRGNVAVTVSGHTCQHWSAQTPHTHNRTPENFPCKNLDENYCRNPDGKRAPWCHTTNSQVRWEYCKIPSCDSSPVSTEQLAPTAPPELTPVVQDCYHGDGQSYRGTSSTTTTGKKCQSWSSMTPHRHQKTPENYPNAGLTMNYCRNPDADKGPWCFTTDPSVRWEYCNLKKCSGTEASVVAPPPVVLLPDVETPSEEDCMFGNGKGYRGKRATTVTGTPCQDWAAQEPHRHSIFTPETNPRAGLEKNYCRNPDGDVGGPWCYTTNPRKLYDYCDVPQCAAPSFDCGKPQVEPKKCPGR
# Plasmin light chain B: VVGGCVAHPHSWPWQVSLRTRFGMHFCGGTLISPEWVLTAAHCLEKSPRPSSYKVILGAHQEVNLEPHVQEIEVSRLFLEPTRKDIALLKLSSPAVITDKVIPACLPSPNYVVADRTECFITGWGETQGTFGAGLLKEAQLPVIENKVCNRYEFLNGRVQSTELCAGHLAGGTDSCQGDSGGPLVCFEKDKYILQGVTSWGLGCARPNKPGVYVRVSRFVTWIEGVMRNN
# modifications: plasmin
# notes: pure plasmin, serine protease deposited on the array
# B2: tPA: pure tPA delivered by aerosol deposition to a sensing array (protein, UniProt P00750 36-562, looked up)
# Tissue-type plasminogen …: SYQVICRDEKTQMIYQQHQSWLRPVLRSNRVEYCWCNSGRAQCHSVPVKSCSEPRCFNGGTCQQALYFSDFVCQCPEGFAGKCCEIDTRATCYEDQGISYRGTWSTAESGAECTNWNSSALAQKPYSGRRPDAIRLGLGNHNYCRNPDRDSKPWCYVFKAGKYSSEFCSTPACSEGNSDCYFGNGSAYRGTHSLTESGASCLPWNSMILIGKVYTAQNPSAQALGLGKHNYCRNPDGDAKPWCHVLKNRRLTWEYCDVPSCSTCGLRQYSQPQFRIKGGLFADIASHPWQAAIFAKHRRSPGERFLCGGILISSCWILSAAHCFQERFPPHHLTVILGRTYRVVPGEEEQKFEVEKYIVHKEFDDDTYDNDIALLQLKSDSSRCAQESSVVRTVCLPPADLQLPDWTECELSGYGKHEALSPFYSERLKEAHVRLYPSSRCTSQHLLNRTVTDNMLCAGDTRSGGPQANLHDACQGDSGGPLVCLNDGRMTLVGIISWGLGCGQKDVPGVYTKVTNYLDWIRDNMRP
# Tests used:
# [1] = Fluorogenic substrate microarray: plasmin on thrombin and kallikrein substrates; assay type: biochemical; details: pure plasmin 1 μM
# Method: (§1) Well characterized for over 30 years, serine proteases of the coagulation pathway in plasma were selected as a system in which to monitor the delivery of complex enzyme fluids to the microassay. Fluorogenic substrates in DMSO/glycerol were assayed to a glass slide.
# (§2) After spray application, thrombin caused a 65-fold increase in fluorescence activity after conversion of the boc-VPR-MCA substrate. […] Aerosol deposition of pure tPA (10 μM) to a sensing array caused significant cleavage of the tPA, thrombin and Xa substrates, resulting in fluorescence that was 18- to 20-fold above background.
# [2] = Morita, 1977; cited from earlier work
# [3] = test system: fluorogenic substrates on the array; experiment: Microarray assay of diluted recalcified citrated plasma with added plasmin; assay type: biochemical, human
# Method: as §1
# The microarray detected the modest activation of the coagulation pathway in recalcified diluted plasma due to low level factor Xa and thrombin activity (Butenas, 1997; Rand, 1996). Since corn trypsin inhibitor was not present to inhibit factor XIIa (Rand, 1996), moderate activation of the contact system and kallikrein generation was detected by conversion of the kallikrein substrate.
# […] This plasmin activity was detected by a strong signal in the plasmin substrate spot. […] Plasmin is also a potent activator of factor XU to factor XUa which can in turn convert prekallikrein to kallilkrein.
# [4] = Fluorogenic substrate microarray, aerosol deposition of enzyme: boc-VLK-MCA; assay type: biochemical; details: pure plasmin 1 μM deposited on the array
# [5] = Fluorogenic substrate microarray: tPA on tPA, thrombin and Xa substrates; assay type: biochemical; details: aerosol deposition of pure tPA 10 μM
# Method: as §1, §2
Molecule,activity on the thrombin and kallikrein substrates [1],reported activity on boc-VPR-MCA and Z-FR-MCA [2],reported activity on tPA and factor Xa substrates [2],signal in the plasmin substrate spot ([3]; plasmin 0.43 μM final concentration added to diluted recalcified citrated plasma),cleavage of substrates on the array ([3]; plasmin 2.14-1 μM final concentration added to plasma),signal for the boc-VLK-MCA substrate above background [4] [fold],"fluorescence above background from cleavage of the tPA, thrombin and Xa substrates [5]"
B1,detectable activity,activity,no detectable activity,strong signal,significant cleavage of each substrate,25,–
B2,–,–,–,–,–,–,18- to 20 fold
